From a protein production outcome set (Wang et al. 2014)

assay: label from the status in PepcDB records

Sequence | protein production
MDKDLKLRPRIKRLLSPAVMQAELLGGAAWLWVLMLGPSVKINLFTCFLTLSLACICWIQHTTTVFCIWRLLGIAYMLLLATGFFYLMDGDPEINIFALPLTITLAISSALLFVKFLDYLLSAVFVWLLTWLCWQEGVYGEIGIYVWIFCVASVCIGSVLNISYIKTLRAVLSLESKFRELAETDYLTSIPNRRAFMESFDSLIKGGESGYLIMLDIDNFKLINDRHGHEIGDRILCSMAACLRATSGSHCAGRIGGEEFGVLITGGDELTACDYILRLLETVRANFDPPYNYSCSVGMVRFSAASTMSEALSMADKSMYIAKRNGKDCAYFEGQEIVSFLFDDSKLKEKYPTETLSENTYQTDTQ | failed
MDKIIIQGARENNLKNIFLEIPKNQFVVFTGLSGSGKSTLAFDTLYAEGQRRYLESLSSYARQFLDKVGKPNVDKIEGLTPAIAIDQKTTSKNPRSTVGTITEIYDYLRLLFARVGEQFCPTCLEPISSMSTSDIISQICHLEENSKIIILAPIIKDKKGSFNDKLESLRLKGYVRAFVDGVMVRLDEEIHLHKTKKHTIEAVVDRVVVNNENASRIASAIEKALKESYGELEVEILQDNAPSIRKHYSEHKACFKCKMSFEELEPLSFSFNSPKGACESCLGLGTKFSLDISKILDPNTPLNQGAIKVIFGYNRSYYAQMFEGFCEYNGIDSALCFNELNKEQQDALLYGNGTEISFHFKNSPLKRPWKGIIQIAYDMFKEQKDLSDYMSEKTCSSCEGHRLKASSLSVQVAGLKMADFLTKPIEEVYHFFNDPTHFSYLNEQEKKIAEPILKEILERVFFLYDVGLGYLTLGRDARTISGGESQRIRIASQIGSGLTGVLYVLDEPSIGLHEKDTLKLINTLRNLQKKGNTLIVVEHDKETIKHADFVVDIGPKAGRHGGEVVFSGSVKELLQNNHSTALYLNGTKKIERPKFELPKEKHFLEIKNVNINNIKNLSVQIPLKQLVCITGVSGSGKSSLILQTLLPTAQTLLNHAKKTQSLNGVEIVGLEHLDKVIYLDQAPIGKTPRSNPATYTGVMDEIRILFAEQKEAKILGYSASRFSFNVKGGRCEKCQGDGDIKIEMHFLPDVLVQCDSCKGAKYNPQTLEIKVKGKSIADVLNMSVEEAYEFFAKFPKIAVKLKTLMDVGLGYITLGQNATTLSGGEAQRIKLAKELSKKDTGKTLYILDEPTTGLHFEDVNHLLQVLHSLVALGNSMLVIEHNLDIIKNADYIIDMGPDGGDKGGKVIASGTPLEVAQNCEKTQSYTGKFLALELK | failed
MDKIRTLLLRLPRRQKRVLQVVTDILLVWVALWMAFVVRLGFDDLNNPFIVHFWLFASAPIVAIPLFIRFGMYRAVMRYFGNDALIAIVKAVTLSALTLALVVYVYSNHQTVVPRSIVFNYWWLSMVMIGGLRLAMRQYFLGDWFTTAQHVPFTNRDDGLPKVAIYGAGAAGNQLVAALRLGRLMRPVAFIDDDGSIADRMIAGLQVYKPKHLQQMIDDTGAEEILLAIPSSSRSRRREILGYLEGFPLHVRSVPGFMDLASGRVKVDDIQEVDIADLLGRDAVPAQVDLLAHCIKGQTVLVTGAGGSIGSELCRQILLQGPSTLILLDHSEFNLYSILSELEQRVSRESRLVKLLPILGSVRNYEKLLSVMRTWSVDTVYHAAAYKHVPMVEHNIAEGVLNNVMGTLNTAQAALQCGVANFVLISTDKAVRPTNVMGSTKRLAELTLQALSKELAPVLFDDLSNVSRVNKTRFTMVRFGNVLGSSGSVIPLFHKQIKSGGPLTVTHPKITRYFMTIPEAAQLVIQAGSMGQGGDVFVLDMGEPVRIVELAEKMIHLSGLSVRSEKNPHGDIAIEFTGLRPGEKLYEELLIGDNVAATQHPMIMSANEDHLPWETLKLKLAELLAALELDDYARVRQLLRETVSGYTPDGEIVDWVYQQRRLKP | failed
MDKKSKPDWAGESLLSNFVNLLIQTKPIYGVMKQQARQVLIKTAEKNGIPWRKNYEALQVSPAKKLLAAVTNPHVIYPDYYKVPFHAYTEGNLCWDAAFETESATYAMALRVWPQENLTWEAAHARLRGTFHDALETYAPQQVRDILDIGCSVGVSTLALHRYYQRRERYPVRTVGLDLSPYMLAVAKTRDVNSEISEWLHARAENTGLPDKSFDLVTIQFVTHELPGYVSQEIFAEAKRLLRPGGYIALVDNNPRSPVIQNLPPVLFTLMKSTEPWSDDYYTFDIEAALQAVGFAPPITVPSDPRHRTIIARKPD | failed
MDKKVEKIQEKVRLFYKKHQRNTTIVVVISLSMILILGMAAWYEGKGISYEAKQTALREKQHALQKKRDDILAGKMTEASTQTTINNFSKQEITGENELVTITGTNGQLNINDANIYVSDNAGIVSNQLKQKMFQLNQQLLENANGAQFMLITVPALPSGESVESYSNKIANQLGVGDREKNNGVVFLMAIEDRESRLEVGYGLESILTDSYADDIINNEEVKEAFRDEDYNTGLNKIIDQVSAAINSKTAQVDNELTNIQTELNTNTTKRNVLLMASIAGMLICAVYILQILRTRKLVKKMYQDYLNCLPTKAVLNNSEQTKKVLNKMKKTSFYCLYLNGATLFATKGKIRRATKRGSLLSIYPNAKKQSFGRLLVGDTLYSYDGSVLTYAYLNSQYNPSNHSSSGSGSGGSFGGGSFGGGGASGSWLEHHHHHH | not failed
MDKLEPLRINMRHGSILAVHFFIPGKPTICHQTARTLIRHIPFQCLLRVTSQNLDVGEFVKIYHEEKAEVKSSSLAKKIPKTSNLLASTSDKLELARAITTFKEEEIRHLAEPDDVDFVLTLDVADVGVSKIVIDVGSLIDLLFLSTLGENGK | failed
MDKNTRVGKRKKRNKAMRIFWSVMAVILVAIGGFALYEYNTVKNAADTAYRSGGLGNAENGSKNSVISNSKPIAILLMGTDTGALGRTYKGRTDSIMVAVLNPKTKKTTLVSFERDQQVNLPDYPENSPSKLNAAYAYGNAKELAKVLKKYYNIPINAYVLINMGGLKTIVNKVVGVDIAPILSFSYEGYTFTKGKTTHMDGAKALAYSRMRYDDPEGDYGRQKRQRQVLSALLNKAESATTLLNSSFISSLSKQVQTDFTFSDMTSMAKRYLAATKDLKTDYTHGTSYMQDGVSYQKVSVSERQRISNLIRKTLGLKTKTVSTDSIDTSTSSSSSSSSTTTDSDTTGGAGNTAGPSDNGAAAGNGADSGTTGGYSAGNDQNNSTGY | failed
MDKPALPIYLVVHFSYGDVTFPLQGRSYWTVGRSQDNDLVIRDNCISRNHAILQATEEDTFLLIDLGSRNGTFVNGRRVSVPIAIQDQDKITFGKTEAQFYSDQNGTPSGLLRNPAEWDTQTNVLHERRLITVLVADMRNFTGMAQQVEEELLSMLIGNWFRQAGHILREAGSWVDKYIGDAVMAIWFHGYNEATPAEIIQILHAVNRLQAMTAKLNQKYELPFPLRIGTGINTGYAMVGNTGSGDHPDYTAIGDTVNAAFRLESATKQAHFDLAMSEKTFSYLQDLPQWSATVQQHTIELKGYTNPITIYGLPFATLGTLLDHTSLEDTTPASEGP | failed
MDKRIATIILSIVNIIGIFEFPLYESFIGFFFISSALSILYESQLSLIVPTVLFASLVLLHIITIQLQKLIILSILMLISIIGKNNKWIYSILITLAPGLIINNLYLLLIVLALLIPLLIKLGGEPRAIIISGILYLIYSGIIFPNNEALANQISQISYFYLMFGIIGIIVEDKRITRITLRKILPYLSFIPASFASIMLGYPSDSSFIYWSASSFYFSHLYLPWIYEIGYNSNQHLIASWFLAYLLTLIIKNPLITAEVFLGIFTFLSGLISYYVFKRLNLKYPLLFSLLYQINIFNPIISHSISVFSYAFLPLVLFFAYNKNKVLYSILTLTAASSIPIFISTLVIPLVYRRYYFLLYALGVNAFWLIPFLIFGYDKFTFNVSNIEILISIILVSISVLLYQLRFKNIEILYMIFISFVLLILGINTGPLILLATILTLGSLRDISILYLTLLSGLIILSATSFSYGVISGYANTTFYTYNLPNLPKPGEYGFGITTLVNDLNLTASGMPTESISYNVRYFIYNSRVIENPLYFGFPIPAIPNYTPQLTFSYIYSNSSVKVIYSPFNKPLGLMVYSNVTPSKISIVFPTRIENISGIKGLVKNYTIQIITNTSLTIIGGKVTVDNKSIFSSYYKPKIVTSIMIGEITEVIDSNYSIYLPIHESLTINGKVVNHPIILPPGKYTIVISDEKIEYVSYASIFLTIVSLVLLIRRGMKV | failed
MDKRIVGTNAGKVWCALKEIGEISIPELARRLNLSVESTALAAGWLARENKICIQRKNGLIALSDESAFPFSFG | failed
MDKRLIVMHNLSRHYGKQYWWQQNSLEDWLMMILIQRTSSKNVAQAVHNLQPYMQVDRLMALSQSELETLVRPAGFYRQKAQRIHDLLTWFVAQGGSFEKIAEKPAAELRETLLALNGIGNETADVMLMYTFGKKTFVADTYAMRLFNRLGFGPYTNYAKMQADFAPALDQITLDEAREWHALIDEHGKTQVRHAYDDRFLLQPDLTEAAWPPEAVQVEPPHDDPGSGKWRHAADPSAMTHK | failed
MDKSIIQLVDELPSDNITVKVLNALDYVAPGQWQNLVGFDNTIRAVTGETDARVIQKIRDRATSLYNDPQQGYQSAVKLYQTIDKADTAMATAALANKVGEKIGFLSFLSNITPKADVTQSIDLVSKIAIEIIVFCKLNGIPQPNPQEFANSLANNYQDASLIRMVALVCLDGILPLGPDFLSKIQGIISGAESNSITQNPVFLAVNSSLPGSNPTDKLGFINQGFNAVQGWMNNLVTKTGITPQSISSHLGNFIQIADDNLDFVAAFLDQTTNYFEHTGIQSVARRLILKAHTLVKEEIKQETTQPIQDSSSAVKSDTSQYAVSKKIEVWDEEEEDWYQATIEKVQDDQFFINYIGYGSSHNEWVGKDDIRATDYASSDANGYAVGKKVKCWSDEEETWYTATIEKIQGNQYFIHYTGYDSSYDEWVNSDDIS | failed
MDKVFAPWRIEWVEREKTNPDVDCVFCAFQAQDDDRANNLVARSDHAFVLLNNYPYNPGHVMVIPHTHTGEYGDLDDKTLLDHGRLKQRTFDALETALSPDAFNAGLNLGGSAAGGSIDDHLHTHVVPRWNGDTNFMPVISDTKVIVEAVEETYDRLYAAFASQDGTTAPEDGAVRIE | failed
MDLALAQVDSTVSGLYDALDLIGVLLNGIIGGTIARQRGYDIIGFLFLALFSALGGGMIRDMLIQQGTVAAIDNQIYLALAFSGALIAMAVNFKGRVWELFKVHGDAIVLGVWAVTGSVKAMNAGVAPLPSIFMGVLTAVGGGMVRDVATGQTPTIFGGGTLYAVPATLSATSMVIFHSFDQVILGMIISPFLGIALAVTAYWCGWVIPVNTDFAPVNLTVSQLRAMLSKAERKDKDQK | failed
MDLDPTLLTWAFVVGGALLMLIEAVVPGGIAFFLGIGGVVVGGLRALGLLVDPLSSVVTWVFLSTGLTIALRPLMLRFVQGDVSLAMTDEDAEAMGETVTVVEAVGPESPGRIRFRGATWDARTLEGRLPDGAEAQLLYRDNLTWVVEPADHADLDAELSAAIGSDVSEGDANRSPSTDDTTSDDSGLGYDPSARSSS | failed
MDLENNNNTPLTGKQAEKCAKKRKCVITLDEKQVESKRLKKEESNVEATSRPPAQSPKKRLHLNGKPMQNKDLNFKYGNYKHYYGKRILNKDFHDIRLDVLGTQPDLFRNKQLLDIGCNSGHLSIQIARKFEVKSLVGLDIDRGLINDAQKTVSHLKRHATPGQGIPHIQFVHGNYVLEDDVLLEIERPQFDVILCLSVTKWIHLNFCDSGLKQAFRRMYLQLRPGGKLILEPQSFDGYKRRKKLSEQIRDNYNAIKFRPDHFTEYLLSPEVGFAEMKLMGIPEHCKVGFKRPIQIFTKS | failed
MDLFVMVVGASGIGDGGEQKYNYKLRAWTNEDDPRQTKIVTTNADPEFREVLHLPQNMASSFLNLELFSVNSADTDAFFIGRANTALPMKTNANVYRKIKLQNLDTSGNIVTVGYLEVYLGLETG | failed
MDLKILSLATDKTTDKLQEFLQTLKDDDLASLLQNQAVKGRAVGTLLRAVLKGSPCSEEDGALRRYKIYSCCIQLVESGDLQQDVASEIIGLLMLEVHHFPGPLLVDLASDFVGAVREDRLVNGKSLELLPIILTALATKKEVLACGKGDLNGEEYKRQLIDTLCSVRWPQRYMIQLTSVFKDVCLTPEEMNLVVAKVLTMFSKLNLQEIPPLVYQLLVLSSKGSRRSVLDGIIAFFRELDKQHREEQSSDELSELITAPADELYHVEGTVILHIVFAIKLDCELGRELLKHLKVALRCF | failed
